Test results taken from patent US20260115250A1 (published 2026).

How the values were obtained:
[1] = molecular target: T1, Low Density Lipoprotein Receptor (LDLR), recombinant (UniProt P01130 22-788); test: SPR; HBS + 0.05% P20
[2] = molecular target: T1, Low Density Lipoprotein Receptor …; test: SPR; HBS + 0.005% P20, peptide
[3] = molecular target: T1, Low Density Lipoprotein Receptor …; test: SPR; HBS + 0.005% P20, DMPC complex
[4] = molecular target: T1, Low Density Lipoprotein Receptor …; test: SPR; HBS + 0.005% P20, peptide; remark: listed apart in the source
[5] = molecular target: T1, Low Density Lipoprotein Receptor …; test: SPR; HBS + 0.005% P20, DMPC complex; remark: listed apart in the source
[6] = molecular target: T-053; test: SPR; HBS + 0.05% P20
[7] = molecular target: T-060; test: SPR; HBS + 0.05% P20
[8] = molecular target: T-050; test: SPR; HBS + 0.05% P20
[9] = molecular target: T-077; test: SPR; HBS + 0.005% P20, DMPC complex
[10] = molecular target: T-071; test: SPR; HBS + 0.005% P20, DMPC complex
[11] = molecular target: T-119; test: SPR; HBS + 0.005% P20, peptide

Row | Binder | Kd [1] [µM] | Kd [2] [µM] | Kd [3] [µM] | Kd [4] [µM] | Kd [5] [µM] | also measured
1 | HLRKLRKRLLRDGDKLQKRLAEYQARAKEAFDR [T-052] | 1.75 | 1.18 | 202 | – | – | –
2 | HLRKLRKRLLRDGDKLQDRLAEYQARAKEAFDR [T-040] | 5.54 | 882 | – | – | – | –
3 | HLRKLRKRLLRDGDKLYDRLAEYYARAKEAFDR [T-062] | 2.23 | 9.36 | 52.9 | – | – | –
4 | HLRKLRKRLLRDGDKLQDRLAEYQARAREAFDR [T-055] | 5.09 | – | – | – | – | –
5 | HLRKLRKRLLRDADDLQKRLAEYQARAKEAFDR [T-064] | 6.81 | – | – | – | – | –
6 | HLRKLVKRLFRDGDKLQDRLAEYQARAKEAFDR [T-059] | 7.27 | 7.72 | – | – | – | –
7 | HLRRLRRRLLRDGDKLQDRLAEYQARAKEAFDR [T-041] | 7.49 | 701 | – | – | – | –
8 | RSGADALESALKELKRFIREWT [T-101] | – | – | – | 11.7 | – | –
9 | HLRKLVKRLLRSLVSQYRQTVTDYGEDL [T-111] | 1.06 | – | – | 2.98 | 0.46 | –
10 | HLRKLRKRLLRSLVSQYFQTVTDYGKDL [T-109] | 1.2 | – | – | 3.15 | 1.05 | –
11 | LARHLRKLRKRLARSLVSQYFQTVTDYGKDLM [T-066] | 2.42 | 2.06 | 0.11 | – | – | –
12 | LASHLRKLRKRLLRSLVSQYFQTVTDYGKDLM [T-065] | 0.75 | 1.07 | 0.18 | – | – | –
13 | T-112 (peptide) peptide: YKDFGERVERALGRQLEMLGQSTEELRVRLASHLRKLRKRLLRDADDLQKRLAVYQA | 0.72 | – | – | 1.14 | 0.17 | –
14 | T-113 (peptide) peptide: WKDFGERVERALREQFEDLGQSTEELRVRLASHLRKLRKRLLRDADDLQKRLAVYQA | 1.82 | – | – | 1.44 | 0.29 | –
15 | T-114 (peptide) peptide: LKDFGERVARALREQFEDLGQSTEELRVRLASHLRKLRKRLLRDADDLQKRLAVYQA | 1.27 | – | – | 2.7 | 0.17 | –
16 | LARHLRKLRKRLARDGDKLQDRLAEYQARAKEAFDR [T-049] | 3.26 | – | – | – | – | –
17 | LASHLRKLRKRLLRDGDKLQDRLAEYQARAKEAFDR [T-048] | 5.24 | – | 666 | – | – | –

Row | Binder | Kd [1] [µM] | Kd [2] [µM] | Kd [3] [µM] | Kd [4] [µM] | Kd [5] [µM] | also measured
18 | T-116 (peptide) peptide: DAWERFRALFKELADYFRLGQSTEELRVRLASHLRKLRKRLLRDADDLQKRLAVYQA | 1.21 | – | – | 4.53 | 0.28 | –
19 | LASHLRKLRKRLLR [T-072] | 4.85 | – | – | 8.27 | – | –
20 | T-118 (peptide) peptide: LVARLLKELTAAMARLGRDAEDIRGNLFQYFDEVWAMLGQSTEELRVRLASHLRKLRKRLLRDADDLQKRLAVYQA | 2.72 | – | – | 0.32 | 94.3 | –
21 | LVQYRGEVQAMLGQSTEELRVRLASHLRKLRKRLLRDADDLQKRLAVYQA [T-070] | – | 1.38 | 0.68 | – | – | –
22 | T-115 (peptide) peptide: DHINKVQRKVTHEIERLFLGQSTEELRVRLASHLRKLRKRLLRDADDLQKRLAVYQA | 2.81 | – | – | 0.42 | 0.21 | –
23 | HLRKLRKRLLRSLVSQYRQTVTDYGKDL [T-110] | 1.15 | – | – | 2.97 | 1.2 | –
24 | T-120 (peptide) peptide: DVKRLLKELTEAMAELARKAEDIRGNLDQYFRKVFAMLGQSTEELRVRLASHLRKLRKRLLRDADDLQKRLAVYQA | 11.8 | – | – | 0.8 | – | –
25 | LASHLRKLRKRLLRDADDLQKRLAVYQA [T-044] | 7.97 | – | 1160 | – | – | –
26 | EELRVRLASHLRKLRKRLLR [T-074] | 2.43 | – | – | 2.37 | 77 | –
27 | LASHLRKLRKRLLRDADDLQKRLAVYQAGAREGAER [T-046] | 3.56 | 6.72 | 56.3 | – | – | –
28 | LARHLRKLRKRLARDADDLQKRLAVYQAGAREGAER [T-047] | 3.26 | – | – | – | – | –
29 | T-068 (peptide) peptide: MEDVRGRLVQYRGEVQAMLGQSTEELRVRLASHLRKLRKRLLRDADDLQKRLAVYQA | 1.98 | 1.48 | 0.66 | – | – | –
30 | T-069 (peptide) peptide: VRGRLVQYRGEVQAMLGQSTEELRVRLASHLRKLRKRLLRDADDLQKRLAVYQA | 2.39 | 1.12 | 0.56 | – | – | –
31 | DAWERFRALFKELADYFR [T-087] | – | – | – | 2.27 | – | –
32 | T-117 (peptide) peptide: RSGADALESALKELKRFIREWTLGQSTEELRVRLASHLRKLRKRLLRDADDLQKRLAVYQA | 4.49 | – | – | 0.4 | 0.01 | –
33 | LDLR (receptor) not shown | – | – | – | – | – | Kd [6]: 122 µM; Kd [7]: 150 µM; Kd [8]: 528 µM; Kd [9]: 189 µM; Kd [10]: 348 µM; Kd [11]: 2.31 µM
